# Data reported in the supplement of paper PMC9112550, “Optimization of the antimicrobial peptide Bac7 by deep mutational scanning” (BMC Biology, 2022).
# Test system: Escherichia coli TOP10
# Experiment: shrunken log2 fold change of peptide-encoding DNA abundance (4.5 h post-induction vs induction); higher = less antimicrobial activity (less host growth inhibition)
# Conditions: time post-induction: 4.5 h; library: site-saturation at positions 5, 18, 19, 20
# 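Also: peptides expressed intracellularly from a pBAD plasmid library in pooled LB shake-flask culture, induced with 0.3% L-arabinose, DNA abundance read by NGS, three biological replicates, DESeq2 with apeglm shrinkage.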
row,Sequence,shrunken log2 fold change
1,RRIRARPPRLPRPRPRPNATPRP,1.97
2,RRIRIRPPRLPRPRPRPYHEPRP,-0.216
3,RRIRQRPPRLPRPRPRPISDPRP,0.0109
4,RRIRGRPPRLPRPRPRPPCCPRP,0.478
5,RRIRERPPRLPRPRPRPCISPRP,-0.218
6,RRIRSRPPRLPRPRPRPQWGPRP,-0.0633
7,RRIRPRPPRLPRPRPRPGYLPRP,-0.129
8,RRIRRRPPRLPRPRPRPCFYPRP,-0.187
9,RRIRIRPPRLPRPRPRPCIWPRP,-0.278
10,RRIRVRPPRLPRPRPRPGNYPRP,-0.162
11,RRIRPRPPRLPRPRPRPPACPRP,0.207
12,RRIRCRPPRLPRPRPRPPFYPRP,-0.0226
13,RRIRVRPPRLPRPRPRPMYLPRP,-0.0313
14,RRIRPRPPRLPRPRPRPVTYPRP,-0.0866
15,RRIRGRPPRLPRPRPRPPHKPRP,0.858
16,RRIRGRPPRLPRPRPRPGKVPRP,0.598
17,RRIRGRPPRLPRPRPRPYIAPRP,-0.391
18,RRIRHRPPRLPRPRPRPKCSPRP,-0.0294
19,RRIRVRPPRLPRPRPRPSAWPRP,0.804
20,RRIRERPPRLPRPRPRPKTGPRP,-0.0863
21,RRIRARPPRLPRPRPRPWYWPRP,0.0283
22,RRIRGRPPRLPRPRPRPQDLPRP,-0.00287
23,RRIRRRPPRLPRPRPRPVMWPRP,0.0562
24,RRIRWRPPRLPRPRPRPNRKPRP,-0.239
25,RRIRDRPPRLPRPRPRPICAPRP,0.172

row,Sequence,shrunken log2 fold change
1,RRIRDRPPRLPRPRPRPGSTPRP,0.637
2,RRIRIRPPRLPRPRPRPTCGPRP,-0.0476
3,RRIRYRPPRLPRPRPRPDQRPRP,-0.24
4,RRIRERPPRLPRPRPRPCSDPRP,-0.5
5,RRIRRRPPRLPRPRPRPIFAPRP,0.355
6,RRIRKRPPRLPRPRPRPAAAPRP,0.896
7,RRIRFRPPRLPRPRPRPHRPPRP,-0.157
8,RRIRWRPPRLPRPRPRPKTAPRP,0.203
9,RRIRQRPPRLPRPRPRPLEMPRP,0.155
10,RRIRCRPPRLPRPRPRPNFEPRP,-0.0286
11,RRIRTRPPRLPRPRPRPNLTPRP,-0.00355
12,RRIRDRPPRLPRPRPRPDVLPRP,0.0169
13,RRIRIRPPRLPRPRPRPCCCPRP,-0.641
14,RRIRQRPPRLPRPRPRPVMPPRP,0.0623
15,RRIRKRPPRLPRPRPRPCIYPRP,-0.198
16,RRIRGRPPRLPRPRPRPKAPPRP,0.855
17,RRIRLRPPRLPRPRPRPAQHPRP,-0.132
18,RRIRYRPPRLPRPRPRPLRKPRP,-0.258
19,RRIRARPPRLPRPRPRPHVMPRP,-0.0593
20,RRIRCRPPRLPRPRPRPHVSPRP,-0.37
21,RRIRFRPPRLPRPRPRPYMSPRP,-0.401
22,RRIRSRPPRLPRPRPRPTVKPRP,-0.188
23,RRIRIRPPRLPRPRPRPIDSPRP,0.0203
24,RRIRRRPPRLPRPRPRPIEQPRP,0.0304
25,RRIRMRPPRLPRPRPRPTWNPRP,0.188

row,Sequence,shrunken log2 fold change
1,RRIRDRPPRLPRPRPRPFYVPRP,-0.0754
2,RRIRWRPPRLPRPRPRPTEIPRP,-0.22
3,RRIRVRPPRLPRPRPRPYNQPRP,-0.844
4,RRIRLRPPRLPRPRPRPVAGPRP,0.0563
5,RRIRRRPPRLPRPRPRPYMPPRP,-0.186
6,RRIRIRPPRLPRPRPRPDLRPRP,-0.0147
7,RRIRQRPPRLPRPRPRPHRNPRP,0.116
8,RRIRYRPPRLPRPRPRPIDYPRP,-0.0298
9,RRIRIRPPRLPRPRPRPLWEPRP,0.223
10,RRIRNRPPRLPRPRPRPRCWPRP,0.108
11,RRIRERPPRLPRPRPRPIFSPRP,0.0654
12,RRIRSRPPRLPRPRPRPIVSPRP,0.0431
13,RRIRMRPPRLPRPRPRPTDHPRP,0.309
14,RRIRTRPPRLPRPRPRPEMLPRP,0.0362
15,RRIRARPPRLPRPRPRPMMRPRP,1.22
16,RRIRHRPPRLPRPRPRPWRIPRP,-0.0502
17,RRIRFRPPRLPRPRPRPRMLPRP,3.84e-05
18,RRIRNRPPRLPRPRPRPSEEPRP,0.0717
19,RRIRIRPPRLPRPRPRPHEAPRP,-0.396
20,RRIRQRPPRLPRPRPRPDIYPRP,-0.284
21,RRIRRRPPRLPRPRPRPPAVPRP,0.606
22,RRIRDRPPRLPRPRPRPHYIPRP,-1.02
23,RRIRVRPPRLPRPRPRPNYGPRP,-0.387
24,RRIRFRPPRLPRPRPRPPPHPRP,1.37
25,RRIRIRPPRLPRPRPRPSTHPRP,-1.02

row,Sequence,shrunken log2 fold change
1,RRIRYRPPRLPRPRPRPGESPRP,0.224
2,RRIRTRPPRLPRPRPRPMTTPRP,0.000642
3,RRIRSRPPRLPRPRPRPALCPRP,0.292
4,RRIRIRPPRLPRPRPRPCFVPRP,-0.422
5,RRIRERPPRLPRPRPRPGQIPRP,0.0685
6,RRIRTRPPRLPRPRPRPEGRPRP,0.1
7,RRIRNRPPRLPRPRPRPVFCPRP,0.36
8,RRIRVRPPRLPRPRPRPCHKPRP,-0.203
9,RRIRNRPPRLPRPRPRPHNRPRP,0.0237
10,RRIRKRPPRLPRPRPRPQDFPRP,0.00806
11,RRIRPRPPRLPRPRPRPCTRPRP,2.07
12,RRIRSRPPRLPRPRPRPCADPRP,0.0939
13,RRIRCRPPRLPRPRPRPNNEPRP,-0.529
14,RRIRMRPPRLPRPRPRPQWHPRP,0.265
15,RRIRNRPPRLPRPRPRPHFRPRP,0.0231
16,RRIRRRPPRLPRPRPRPNDTPRP,-0.115
17,RRIRQRPPRLPRPRPRPQKQPRP,0.057
18,RRIRKRPPRLPRPRPRPENAPRP,0.116
19,RRIRDRPPRLPRPRPRPCSGPRP,-0.0282
20,RRIRFRPPRLPRPRPRPCDQPRP,-0.0178
21,RRIRERPPRLPRPRPRPRTQPRP,0.111
22,RRIRYRPPRLPRPRPRPATVPRP,-0.042
23,RRIRCRPPRLPRPRPRPAIAPRP,0.165
24,RRIRWRPPRLPRPRPRPYYIPRP,-0.459
25,RRIRLRPPRLPRPRPRPLHPPRP,-0.0561

row,Sequence,shrunken log2 fold change
1,RRIRWRPPRLPRPRPRPTKPPRP,0.184
2,RRIRDRPPRLPRPRPRPTQMPRP,0.583
3,RRIRDRPPRLPRPRPRPLPRPRP,0.391
4,RRIRCRPPRLPRPRPRPSTFPRP,-0.714
5,RRIRNRPPRLPRPRPRPLWAPRP,-0.0559
6,RRIRPRPPRLPRPRPRPTDAPRP,0.12
7,RRIRMRPPRLPRPRPRPEGHPRP,2.72
8,RRIRWRPPRLPRPRPRPSISPRP,-0.283
9,RRIRTRPPRLPRPRPRPRMQPRP,0.0874
10,RRIRHRPPRLPRPRPRPIEAPRP,-0.131
11,RRIRGRPPRLPRPRPRPSTQPRP,0.82
12,RRIRLRPPRLPRPRPRPFPPPRP,0.00271
13,RRIRERPPRLPRPRPRPDPTPRP,-0.0306
14,RRIRCRPPRLPRPRPRPNWKPRP,0.0151
15,RRIRHRPPRLPRPRPRPPTFPRP,-0.0769
16,RRIRPRPPRLPRPRPRPIQKPRP,0.115
17,RRIRFRPPRLPRPRPRPFTGPRP,-0.246
18,RRIRSRPPRLPRPRPRPDCMPRP,-0.165
19,RRIRFRPPRLPRPRPRPLQTPRP,0.165
20,RRIRRRPPRLPRPRPRPQWDPRP,0.0215
21,RRIRVRPPRLPRPRPRPYYTPRP,-1.39
22,RRIRGRPPRLPRPRPRPFFTPRP,0.215
23,RRIRRRPPRLPRPRPRPDHQPRP,-0.18
24,RRIRARPPRLPRPRPRPIQCPRP,0.00559
25,RRIRFRPPRLPRPRPRPNNGPRP,-0.151
